Biological target: trimerized sTNFRII-gAD fusion protein (UniProt P20333)
Experiment: AUC; ultracentrifuge analysis of the purified trimerized sTNFRII-gAD

stoichiometry N: 3
Substance: trimerized sTNFRII-gAD fusion protein (from UniProt P20333 23-257)

From PMC4207793
